Data: the NTF2 design screens of Basanta et al. (2020)

Assay: protease stability score; higher = more stable; yeast display proteolysis, trypsin and chymotrypsin;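 further: relative to predicted unfolded state with 0 unfolded-like and 1 meaning tenfold more protease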

Point of comparison: “TEDEKMLKESLERLLYTLHTGDEEFNKRLMDPEVRIVIGDKELHGMELARKFWEKLYKDLGADHVHMDVKHVRSIGDKVEVDSQLIFRVGDKEIRVDTKLFSHKFDGRWRLRYEYVD”, protease stability score 1.39. Against it:
- SEREEENRRAFHKFWEIIKTGDEELQDTFADPHVRLDVDGKEFHGREWIVRMLTELLRRFGVDHITFKHVEVQGDKLIIHHRDEVGDKKFELHVIVDKINGRWYERHVSMSER — higher, 1.65
- AREEEIVEEMARLMRHLWTTGDEEKIDEMLDPDVRVEWRVNGVHLENHGRDQFIRILRRFSDEWRLRSLHDETFRIQGDKVEVDSRFDVQVNGQRDILETEFHLVVVDGRIRHVEIIIK — higher, 1.6
- TEDEEAARRHTQEWIHAVRTGDEELLERMIDPEYKLDYNGVDIIGREEYIRIRSEQLQKFKNMRIEVRIHELRHQGDKIDLDVLIIEKWNGVTFRERSHLVILKFDGRWFIRFTSIK — lower, 0.801
- TEDEELTSRANKEFQEFETTGDEEVLKRLFDPNTRLDVNGQDRHGRDEVVHLLVRMIHKLGIDHVSLKEVRIVNGKLDLNLTINVGEKRINTRLIHKKVNGRWVIETVEMG — lower, 1.23
- SDLEMEMKRWMELWLRMFVTGDFRTFLHLADPEYKVSAEGVSSHGRDFHIKELLRWLKEIRIHDFHVKDMDVQGDKAHSDGRHNGIVDGRNRDVNVHNEIVTIDGRLRSVTIRLE — lower, 0.534
- DEEEERLEKLAEILIHYHLTGDFEILLEYADPNVQTEFDGVEIHGMELSNKFLEKSNKKLGVDHRHYKSYSAYGNKVTVLSEIHVNGRKMEVRFRWDVVNGKIQTLHIHFD — lower, 1.05
- NEDEEWIHKFWETLRKNIETGNEEEIEKLFDPNTRVEIGDKIIHGRRFIEHLKERADHVEEVHFQHKHIEIQGDKVQVHGELDHDIRIGDKRHRLRLDIIIILKKYNGRWHVHSFIIT — lower, 1.2
- SEEDKLMRDIERLVLEWLETGDEDALKKMLDPHVRVEFNGVERIGMDELARLLKHLRFDHIHIRNSRVINGVIHIDGHIDGTINGRRVRHDLEVRIIIVNGRFKEIILIDR — lower, 1.21
- SEEEEATKEMSRLVLENLKTGDFDAFHRLFDPNAKLDVGDKHFHGREQIHEWYLHVREELGVDVSRVHEKHIQVIGNKVILHGELHLRIGDKRDDTTMWIVSKKFDGRWILSSMRIS — lower, 1.32
- SEDDELSKHAFDMLRDSIHTGDEHLNNKLFDPHVRLYYGDKLLIGREHLTRLLFFWAKELRIELRVRHYESQGEKVDIHVELIMRVNGREQKHDVILYLEKVNGRWIMHSIEIR — lower, 0.775
- DELEKLLEHMLRLMNELLETGDWDWIMSLADPHTKFRLDINGVEHIDHGWEFLHKRIEELGADHREFRVRDIHTQGDKVHSEGEHLIRVNGKEIHIDVRIILLVVNGKVKEIEVRFK — higher, 1.7
- DEDHELSREFLEELLKSWITGDEDVMREFADPNVRQHVDGKDLHGMEEWTRFVYHMRFHDVRIEHHRLFDGQVEIKFREDVTYNGRRVHIESRVRIVKVNGVWRLKELYVH — lower, 0.858
- SEEEELDKKAFKLWIHSLRTGDEDLITELADPRVKMTIGDKEFHGREEFKHAMHELLKRVDHIKDVKLKHWDVINGRLHVIVEVNGNVDGRETYIETSMTSLKINGRWILQSWSVR — lower, 1.31
- DEEHDIDRKIFEMIVDVFLTGDWKRWFDNADPDVKTEIRIGDKKIDLHGWEFFLRFLEEELRRFKNIQIMSTDVKLFNGKVDVNIEIRIGDKTQHYIYHIHTFNGVIKHVHVHSK — lower, 1.28
- DEFREIIRRAMEIYRHSERTGDEDTIREMVDPDVKLDIDGKEIVGWERLLEFLTRVDHIHLHLNNMKLQGDYVIHDGELRLNIDGRNISTRIVIIAEKVNGRWHMKHVEFR — lower, 1.24
- TEDDEHLEEEAEEYKEYVRTGDWKKIFELADPHTKIDIGNYKRHGMEDFLRDVIHVYTKLGVTIEHHVHDVRVINGRAHVNMEVRVHYGEKDERIKTTLIMRKVDGRWKLTSIHFK — lower, 1.15
- TEDEEISEKAFRYLVESLETGDEETDRHLADPHVRIVFEGRSYHGREQFHEIMSHIRVHHVEIRDVRVQGNKVDWDTQSKVEFNGRKYWVQTRIIVLKVDGRWILHSYILK — lower, 0.708
- DEEERMAHEVAEILLRSLHTGDWRRDMDLLDPHVRFDFNGVHLHGREEWLRHLHEFWRKFGVEFFDLHEDNISIQGDKAIMDGQIEFNGRRTKQKLEITVIDGRVKEVRVEIH — lower, 0.59
- DEDTHEFRHFIELRRHNLETGNERALAELLDPNVRILFDGVDIVGRDSWIKHLRELGYEQVDSRVNIKRLEIWNGRAHMDGRVRRHFDGKTTEVDVHLVLVKFNGRWVIESIHNH — lower, 0.555
- SDFEEITRKITEIITRAFFTGDWRQIERLMDPEVRNELTIGDKRIERHGRENLVHLLEEAGIDVIRIRSVEIRFFNGRLEVRIDHEVTINGVHFKTVIVVIMIKIDGRWVVHSWSFHFE — lower, 0.959
- SEEERTAEKLMRDWLKNWMTGNEEIIKELADPNVKLLVGDKEMHGMEELSRFLKELRIHDSDVRDIRLKSINGVLHIESDGRLKGEFNGQHIDTRTVVRLDVHKFDGRWHLKSIEVEIR — higher, 1.95
- DEEEKKAQEFLEFVMSALETGDEETLKRLMDPRVRLRFDGRDIHGREEVLRVWIEVLKRADHVRVEIRDMEFQGDKLHIHFELILHIGDKENHIEIRQNVFKVDGQWIIKEHEIR — higher, 2.22
- EDDERELKLMLELLLHSQHTGDFKEAERLADPNARFEFNGREFHGREQFHSFIWKLGVDHSEVKRVRLQGEFLTLHIKHNVNGKEIDMIWYNVKVNGKWLIHHLEVR — lower, 1.21
- HEEQELLEEFVEKLRQTLETGDEHFTRELLDPNVRYVQGDKEWHGRDLAAELNKKLGIKVVDIKHVRYWNGRLDLRGEDQVGDKTTHTILHVDKFNGRWFYKEVIFV — lower, 0.721
- DEEEHWAKEFLKIESEAMMTGDEESLIELIDPDARIQIGDKKYHGMEFVKYLFEQERKKLGIERVHVEFELKEIHYQGNYMIVDGIIRRSYGDKTETRRVIIYLIKFDGQWVIESIQFL — lower, 0.863
- SHKEEEFRRLFELTIRMFLTGDEDVMSKLMDPNVRLQVHVNGKNIEIHGWENLIKTFIDLGIDHWEFKRSDIIGDFVMLDGRIEFNGRRSNTELRFLIIDGRVKSIIIKIE — higher, 2.05
- DEHEKIIKHFLELFMWALRTGDEEINRHLVDPNVRVDVNGVILIGREEVVHYLRHLQEKLGMEIEEVRVEDMSVFDGRLHVDMRIHGRIGDKHTTIETHYLILKFDGRWILEHRRIR — higher, 2.37
- SELEESLEKFLRALRHLTETGDEDTWKRLLDPTTRLEINGKEIHGREDVSRHWKELRFRSEDPKDYKIVDGVLRLDTRVDGVFNGQHREVDVEVIVFKVDGRWEIKRIRYH — higher, 1.56
- SEEEEELTKWKKILEEALKTGDWRLIEELFDPHVRFIINGRHIHGMEVRLKEQEELGVNHESQELRDKHIEHQGDKVVINGHLNKIVFVNGKDLHDRYDIIFIYTKINGRWYVKRMIVN — lower, 0.502
- TDDEREAVRFSEEVMHSFITGDEEHLDRLMDPNTKLTVNGKEIHGRQDVLEFIKRYRRELGVKYSEFVVHSVDDFDGRLRNNTELNINVDGKHIRLDTRVDMIKFNGRWQLHSIRFD — higher, 1.44
- DEHKHIAEEIARIVLENWMTGNEEIFKKMADPHVRVHINGKKSHGRDHYHELWRLLFEHIRIEHLHIRHMDKQGDFVRVEVEVTGHIDGRRETVESEFRIRTVNGVLRDVEIHFH — lower, 1.2
- SEEEKYARKAIELMKHNYETGDFEKLSRLMDPHVRLHIGDKSHHGMDEFVHWVSQFDHMEMNVHDVRVQGDKIEIIGHLVVRIDGRERRTETYIHLHKFDGQWIVHTIEVR — lower, 1.34
- NERTEEIEEAMERMLEWWRTGNFEDINKNLDPNMRTHVFIDGREVLFHGRELMLEIFDRMGVDHIEVTHFDVIGNKVEVHSRSHQGDKHVDIKLVLEKIDGRWILSQIHIRIE — higher, 1.94
- DENKKAFEEAVSWFRHTSETGDEELFNDLVDPDTRTNYNGVSYHGWKEYEEYLRLIRELLGIKVVKHVHIHSVDVQGDFIHMDVELNLHYNGRERIERSHIRAFKVNGRWRMKSMIVV — lower, 0.362
- DHEDKLHEEAFRRWLHVFKTGNEDLIRRLVDPHVKLEVDGQDFHGREELLRFLIERIRNLGIKVSDVKVKHVDIQGDKLDIDVRFIVEFNGRRTEINEWLIMEKIDGRWVVQSIHIR — lower, 1.3
- SEEDKWIKDMTHLFLHWFLTGDEEIFNHFADPNVRVQYGDKWRVGRERVSEFNEFVLRELRFKEIRLKNLSTQGEKATSIVRVDVQFDGKEIDIEIRIHIVVVDGVLKQVEIRET — lower, 0.795
- SEIDEWLHRWFNLWIDAFITGDEDFLKELADPDVRLVDGDFEKVGREEFTRSMRQYLRHARVDHFRIKHQHMQGDKIHVHGHIEMTINGKHIRHEIRLRFVVINGRFHSMHIEID — lower, 0.975
- SEIERDVHELIKEVSELTHTGNEEHSKMLLDPNYRVEIGDKTIHGRHLVSHWIKQMRSDITVEIREVRLIDGRLLADIRFVVRIRFDGVELHIEERRVLFWLKVDGQWIIESQRVH — lower, 0.827
- DEDERLMQKAMEELWDIWHTGDEDRYNELADPHDRFEVGDKEIHGREETSHFLTEFRKRVKGIRILTDRFDHRRIGDKVVLRLETRIEIDGVRIKTRLIFIIRKFNGKWHIHSIIVIIE — lower, 0.673
- SEEEKKSKDALRFLEEVWKTGDWDDFRKMIDPHVRIEVNGRTYHGMEDAEKFARDLLKRVKNMKVSIRHIETQGDKMIVHGELNIDGVHSEIQIFTDKIDGRWLLKEVNFI — lower, 0.498
- DDEEHEARLAVHELREVQRTGDERQLHELIDPDTRFEFPGVTLHGRENMVEWLARIKNLRVESIHERHISIYNGQVDFDMEMHVRDGNKHRTEKWRIIMYKFDGRWSIKSFESR — lower, 0.961
- SEEEKHTREMSEMLLRTWETGDEEEYEHLADPHVRIDFNGKHYHGREEAVKLLRWLIEELGADHRTIHREEVQGEKVRLFTRVNVNGRDLRLIIRFVVINGRLTIMKIEIHTE — lower, 1.26
- SEDEEIMQRLLEELIEALTTGDEDFFTELVDPHARTEFDGKVMHGRERLKYTIELFGVKHVEFRVEVKRISVFDGRILSDTHLELIIDVDGRSVIIRRHTELRVDKVDGRWFNTEHRIE — lower, 0.183
- DEVDDEVDKMLEFVLDSWETGDEHINRDLMDPNVLVEAENRTLIGREWAEEFLHSIKKRFPNMRVQLHDMRVVGDKVELDTELRYGEYHNRTHIIALKVNGKWLVEKVHFH — lower, 1.13
- HELDELTERTVKLFRDSSYTGDEDTLEDLADPNYRFVIDGKILMGREWVTRSLREWRVEDFRIHSVDLQGDKAHVDITVKGKFNGRFRTTRQEMVMMKVDGVWYFHSLTIR — lower, 0.521
- SEEDEQSKKILHIFIEILKTGDFETLEHMLDPNAKLDIDGRDLHGRELFLSMWEEFVRQYKNLRIIFRDYRLYGDYVIIHGQLRINGKTHDLRFHIVNINGRLKHLKIEHE — higher, 1.46
- DHEEKHLEHFLHLITHLEHTGDERTLEKLVDPHVRHEFNGKELHGRERAVRWSEELRQKMGADHWSIKRVNVFDGVVHLHTELEVNGVRVHFHIDVRVVDGRVKHIKIRNE — lower, 0.861
- TELEEEAKKYQDFFVTIVVTGDEDSFINLFDPNVRSVVNGRKLHGMHKWKRYIEELLRKIKNLRFELTIHEVNVIDGKVESHMELILRINGVEQRHDLNVHAEKFDGRWLYREIEIR — higher, 1.46
- SEDHERERRVNEEFLTAMWTGDEKWIMNLADPNVRTEWNGVENIGRETISEHLDHQKKRLGVKHIEIKHVEIINGVLHMHGRLDVNGVETEVIIRSFIIDGRLTELIFEIR — lower, 0.819
